From publication PMC5995969, “Structural basis for the regulation of human 5,10-methylenetetrahydrofolate reductase by phosphorylation and S-adenosylmethionine inhibition” (Nature Communications, 2018)

B1: CIP-treated HsMTHFR1–656 (dephosphorylated) (enzyme)
chain: not shown
notes: human 5,10-methylenetetrahydrofolate reductase (MTHFR), residues 1–656, numbered according to NP_005948.3; Same construct as m1 after removal of 9 or 10 phosphate groups by CIP; Some residues of the cleaved C-terminal tag may be left; also called HsMTHFR_(1–656) (CIP); dephosphorylated HsMTHFR_(1–656); not shown: FLAG, C-terminal, cleaved; His10, C-terminal, cleaved
B2: full-length recombinant human MTHFR (HsMTHFR1–656), as purified (phosphorylated) (enzyme)
chain: not shown
modifications: phosphorylated with partial occupancy, up to ten sites occupied simultaneously: Ser9, Ser10, Ser18, Ser20, Ser21, Ser23, Ser25, Ser26, Ser29, Ser30, Thr34, Tyr90, Thr94, Ser103, Ser394, Thr451
notes: human 5,10-methylenetetrahydrofolate reductase (MTHFR), 656 amino acids, residues 1–656, numbered according to NP_005948.3; also called 5,10-methylenetetrahydrofolate reductase; phosphorylated HsMTHFR_(1–656); source: Sf9 (baculovirus), purified (Ni-NTA, Superdex 200, tag cleaved by TEV protease, re-passaged over Ni-NTA); not shown: FLAG, C-terminal, cleaved; His10, C-terminal, cleaved
B3: HsMTHFR38–644 (domain or fragment)
chain: not shown
notes: Not phosphorylated; Native and SeMet-derivatized protein were crystallized; also called truncated HsMTHFR; crystallized construct

Molecular target: the molecule itself
Assay: native MS; protein desalted into 50 mM ammonium acetate pH 6.5, infused directly, positive ion ESI-QTOF; as purified or after CIP treatment

| Protein | stoichiometry N |
| --- | --- |
| B1 | 2 |
| B2 | 2 |
| B3 | 2 |
